The text below walks through data of paper PMC3154154.

Test [1] has as its target L19 IgG control antibody (unmodified, without linker) (human). As to the kind of experiment: SPR; Biacore T100; L19 IgG or modified versions immobilised on a CM5 chip treated with antibody capture kit; soluble Fc receptor fragments as analytes at 1.56 - 50 nM; association and dissociation kinetics used to calculate the dissociation constant.
Test [2] deals with L19 IgG-GyrA after EPL (cleaved with Mesna, cysteine as probe) (human). The test is described as above.
The target in test [3] is L19 IgG-DnaEN after PTS (trans-spliced with DnaEC peptide without a probe) (human). The description is as above.
The target of test [4] is L19 IgG after PTS (L19 IgG-DnaEN trans-spliced with DnaEC peptide without a probe) (human). As to the kind of experiment: SPR; Biacore T100; L19 IgG or modified versions immobilized on a CM5 chip treated with antibody capture kit; soluble Fc receptor fragments 1.56 - 50 nM as analytes; KD calculated from association and dissociation kinetics.
Test [5] deals with L19 IgG after EPL (L19 IgG-GyrA cleaved with Mesna and derivatized with cysteine) (human). Described as above.
Sequence of L19 IgG after EPL (L19 IgG-GyrA cleaved with Mesna and derivatized with cysteine) (human) (heavy, as listed by the source, chain 1 of 2): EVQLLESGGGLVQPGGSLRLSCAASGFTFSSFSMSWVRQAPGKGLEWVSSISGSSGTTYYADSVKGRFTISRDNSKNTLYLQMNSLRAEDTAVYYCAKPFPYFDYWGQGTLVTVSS
Sequence of L19 IgG after EPL (L19 IgG-GyrA cleaved with Mesna and derivatized with cysteine) (human) (light, as listed by the source, chain 2 of 2): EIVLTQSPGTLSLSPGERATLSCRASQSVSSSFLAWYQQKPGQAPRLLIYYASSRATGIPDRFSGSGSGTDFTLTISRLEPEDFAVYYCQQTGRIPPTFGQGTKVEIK

Sequence of L19 IgG-DnaEN after PTS (trans-spliced with DnaEC peptide without a probe) (human) (heavy, as listed by the source, chain 1 of 2): as the sequence (heavy, as listed by the source, chain 1 of 2) above
Sequence of L19 IgG-DnaEN after PTS (trans-spliced with DnaEC peptide without a probe) (human) (light, as listed by the source, chain 2 of 2): as the sequence (light, as listed by the source, chain 2 of 2) above
Sequence of L19 IgG control antibody (unmodified, without linker) (human) (heavy, as listed by the source, chain 1 of 2): as the sequence (heavy, as listed by the source, chain 1 of 2) above
Sequence of L19 IgG control antibody (unmodified, without linker) (human) (light, as listed by the source, chain 2 of 2): as the sequence (light, as listed by the source, chain 2 of 2) above
Sequence of L19 IgG-GyrA after EPL (cleaved with Mesna, cysteine as probe) (human) (heavy, as listed by the source, chain 1 of 2): as the sequence (heavy, as listed by the source, chain 1 of 2) above
Sequence of L19 IgG-GyrA after EPL (cleaved with Mesna, cysteine as probe) (human) (light, as listed by the source, chain 2 of 2): as the sequence (light, as listed by the source, chain 2 of 2) above
Sequence of L19 IgG after PTS (L19 IgG-DnaEN trans-spliced with DnaEC peptide without a probe) (human) (heavy, as listed by the source, chain 1 of 2): as the sequence (heavy, as listed by the source, chain 1 of 2) above
Sequence of L19 IgG after PTS (L19 IgG-DnaEN trans-spliced with DnaEC peptide without a probe) (human) (light, as listed by the source, chain 2 of 2): as the sequence (light, as listed by the source, chain 2 of 2) above

As for “Fcγ RI/CD64, soluble Fc receptor fragment (from UniProt P12314 16-292)”, in test [1], the Kd was 0.17 nM, the koff is 0.000168 s⁻¹ and the kon is 1.02e+06 M⁻¹ s⁻¹. In addition, in test [2], the Kd is 0.13 nM, the koff was 0.000145 s⁻¹ and the kon was 1.11e+06 M⁻¹ s⁻¹. Besides, in test [3], the Kd is 0.21 nM, the dissociation rate constant (koff) is 0.000201 s⁻¹ and the kon is 960000 M⁻¹ s⁻¹.
For “soluble Fc receptor fragment Fcγ RIIIA/CD16a (from UniProt P08637 17-208)”, the dissociation constant Kd in test [4] and in test [5] was 60 nM each time.
